Experimental data taken from patent US20250332264A1, “GhR-BINDING PEPTIDE AND COMPOSITION COMPRISING SAME” (priority 2021, published 2025).
Starred links: 1 amine or outer side, 2 acyl side, 3 side chain; linkers in the order of their positions; H or OH if unused. Positions of bridges follow the written chain, without caps; N, C: chain ends. Non-standard residues stand in square brackets, D forms with d. Groups on a side chain read outwards from the residue. No end group written: not given here. *: point of attachment. A4pipaa = 4-amino-1-(carboxymethyl)piperidine-4-carboxylic acid, O=C(C1(N[*:1])CCN(CC(=O)[*:3])CC1)[*:2]; BiPh4pCO = 4-([1,1′-biphenyl]-4-yl)butanoic acid, O=C(CCCc1ccc(-c2ccccc2)cc1)*; Biph4pCO = 4-([1,1′-biphenyl]-4-yl)butanoic acid, O=C(CCCc1ccc(-c2ccccc2)cc1)*; X1 = 4‑(carboxymethyl)piperazine‑1‑carbonyl, O=C(O)CN1CCN(C(=O)*)CC1; Trp(1-CH2CO) = O=C([C@H](Cc1cn(CC(=O)[*:3])c2ccccc12)N[*:1])[*:2]; Trp(5-OMe) = COc1ccc2[nH]cc(C[C@H](N)C(=O)O)c2c1; Butanoyl(4-(4-I-phenyl)) = O=C(CCCc1ccc(I)cc1)*; Trp(5-OH) = N[C@@H](Cc1c[nH]c2ccc(O)cc12)C(=O)O; Phe(4-COOH) = N[C@@H](Cc1ccc(C(=O)O)cc1)C(=O)O; Trp(7-aza) = N[C@@H](Cc1c[nH]c2ncccc12)C(=O)O; Butanoyl(4-(4-MePh)) = Cc1ccc(CCCC(=O)*)cc1; C17 diacid = O=C(O)CCCCCCCCCCCCCCCC(=O)*; C16 diacid = O=C(O)CCCCCCCCCCCCCCC(=O)*; C15 diacid = O=C(O)CCCCCCCCCCCCCC(=O)*; C14 diacid = O=C(O)CCCCCCCCCCCCC(=O)*; Hexanoyl(6-Ph) = O=C(CCCCCc1ccccc1)*; Butanoyl(4-Ph) = O=C(CCCc1ccccc1)*; 4Pal = N[C@@H](Cc1ccncc1)C(=O)O; NMeK = CN[C@@H](CCCCN)C(=O)O; W5H = not defined here; AEEA = NCCOCCOCC(=O)O; Aib = CC(C)(N)C(=O)O

B1: GhR_PD_202 (peptide)
peptide: {CH2CO}-[4Pal]KVVSN[Trp(5-OMe)][Phe(4-COOH)]K[Trp(5-OH)][Aib]VC-NH2
modifications: thioether N-13; not fully specified (residue 2); also: albumin binder E-4IPhpCO, attachment site not given here
B2: GhR_PD_208 (peptide)
peptide: {CH2CO}-[Phe(4-COOH)]KVVSN[Trp(5-OMe)][Phe(4-COOH)]K[Trp(5-OH)][Aib]VC-NH2
modifications: thioether N-13; not fully specified (residue 2); also: albumin binder E-4IPhpCO, attachment site not given here
B3: GhR_PD_233 (peptide)
peptide: {CH2CO}-[F4COO][MeK]VVSN[W1aa][F4COO]K[W5H][Aib]VCK
modifications: thioether N-13; lactam 2-7; reading uncertain; also: albumin binder E-E-cC14COO on the side-chain amino group of the linker lysine, which lysine is not given here
B4: GhR_PD_224 (peptide)
peptide: {CH2CO}-[Phe(4-COOH)]KVVSN[Trp(5-OMe)][Phe(4-COOH)]K[Trp(5-OH)][A4pipaa]VC-NH2
modifications: thioether N-13; not fully specified (residue 2); also: albumin binder E-4IPhpCO, attachment site not given here
B5: GhR_PD_223 (peptide)
peptide: {CH2CO}-[Phe(4-COOH)]KVVSN[Trp(5-OMe)][Phe(4-COOH)]K(X1)[Trp(5-OH)][Aib]VC-NH2
modifications: thioether N-13; not fully specified (residue 2); also: albumin binder E-4IPhpCO, attachment site not given here
B6: GhR_PD_204 (peptide)
peptide: {CH2CO}-[4Pal]KVVSN[Trp(7-aza)][Phe(4-COOH)]K[Trp(5-OH)][Aib]VC-NH2
modifications: thioether N-13; not fully specified (residue 2); also: albumin binder E-4IPhpCO, attachment site not given here
B7: GhR_PD_203 (peptide)
peptide: {CH2CO}-YKVVSN[Trp(7-aza)][Phe(4-COOH)]K[Trp(5-OH)][Aib]VC-NH2
modifications: thioether N-13; not fully specified (residue 2); also: albumin binder E-4IPhpCO, attachment site not given here
B8: GhR_PD_212 (peptide)
peptide: {CH2CO}-[Phe(4-COOH)]KVVSN[Trp(5-OMe)][Phe(4-COOH)]K[Trp(5-OH)][Aib]VC-NH2
modifications: thioether N-13; not fully specified (residue 2); also: albumin binder E-E-4IPhpCO, attachment site not given here
B9: GhR_PD_206 (peptide)
peptide: {CH2CO}-YKVVSN[Trp(5-OMe)]YK(X1)[Trp(5-OH)][Aib]VC-NH2
modifications: thioether N-13; not fully specified (residue 2); also: albumin binder E-4IPhpCO, attachment site not given here
B10: GhR_PD_211 (peptide)
peptide: {CH2CO}-YKVVSN[Trp(5-OMe)][Phe(4-COOH)]K[Trp(5-OH)][Aib]VC-NH2
modifications: thioether N-13; not fully specified (residue 2); also: albumin binder E-E-4IPhpCO, attachment site not given here

Biological target: Recombinant human GhR-Fc protein (R&D Systems) (human) (UniProt P10912)
Experiment: SPR, Biacore T200, single-cycle kinetics, GhR-Fc immobilised on CM5

Recombinant human GhR-Fc protein (R&D Systems) (human), sequence (P10912 19-264 limits assumed): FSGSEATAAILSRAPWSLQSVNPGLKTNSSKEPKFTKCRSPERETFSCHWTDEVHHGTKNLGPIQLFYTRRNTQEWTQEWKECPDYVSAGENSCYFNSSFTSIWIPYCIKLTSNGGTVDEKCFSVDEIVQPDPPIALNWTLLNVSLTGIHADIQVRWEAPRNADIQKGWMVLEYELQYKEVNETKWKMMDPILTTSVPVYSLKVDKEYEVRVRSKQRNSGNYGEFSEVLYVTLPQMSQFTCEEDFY

Row | Kd | Binder
1 | 2.77 nM | B1
2 | 2.19 nM | B2
3 | 3.1 nM | {CH2CO}-[Phe(4-COOH)]KVVSN[Trp(1-CH2CO)][Phe(4-COOH)]K[Trp(5-OH)][Aib]VCK([Glu-Glu-C15 diacid])-NH2 (thioether N-13; lactam 2-7; not fully specified (residue 2)) [GhR_PD_269]
4 | 2.85 nM | B3
5 | 3.88 nM | {CH2CO}-[Phe(4-COOH)]KVVSN[Trp(1-CH2CO)][Phe(4-COOH)]K[Trp(5-OH)][Aib]VCK([AEEA-AEEA-Glu-Glu-C14 diacid])-NH2 (thioether N-13; lactam 2-7; not fully specified (residue 2)) [GhR_PD_271]
6 | 1.46 nM | {CH2CO}-[Phe(4-COOH)]KVVSN[Trp(1-CH2CO)][Phe(4-COOH)]K[Trp(5-OH)][Aib]VCK([Glu-Glu-Butanoyl(4-(4-I-phenyl))])-NH2 (thioether N-13; lactam 2-7; not fully specified (residue 2)) [GhR_PD_217]
7 | 2.82 nM | {CH2CO}-[Phe(4-COOH)][NMeK]([Glu-Hexanoyl(6-Ph)])VVSN[Trp(5-OMe)][Phe(4-COOH)]K[Trp(5-OH)][4‑amino‑1‑(carboxymethyl)piperidine‑4‑carboxylic acid]VC-NH2 (thioether N-13) [GhR_PD_256]
8 | 10.8 nM | B4
9 | 7.38 nM | {CH2CO}-Y[MeK]([Glu-Glu-Butanoyl(4-(4-I-phenyl))])VVSN[Trp(5-OMe)][Phe(4-COOH)]K(X1)[Trp(5-OH)][Aib]VC-NH2 (thioether N-13) [GhR_PD_227]
10 | 1.36 nM | {CH2CO}-[Phe(4-COOH)]KVVSN[Trp(1-CH2CO)][Phe(4-COOH)]K[Trp(5-OH)][Aib]VCK([Glu-Butanoyl(4-(4-I-phenyl))])-NH2 (thioether N-13; lactam 2-7; not fully specified (residue 2)) [GhR_PD_247]
11 | 4.13 nM | {CH2CO}-Y[MeK]([Glu-Glu-Butanoyl(4-(4-I-phenyl))])VVSN[Trp(5-OMe)][Phe(4-COOH)]K[Trp(5-OH)][A4pipaa]VC-NH2 (thioether N-13) [GhR_PD_228]
12 | 5.81 nM | {CH2CO}-[Phe(4-COOH)][NMeK]([Glu-BiPh4pCO])VVSN[Trp(5-OMe)][Phe(4-COOH)]K[Trp(5-OH)][4‑amino‑1‑(carboxymethyl)piperidine‑4‑carboxylic acid]VC-NH2 (thioether N-13) [GhR_PD_255]
13 | 5.47 nM | B5
14 | 1.88 nM | {CH2CO}-[Phe(4-COOH)]KVVSN[Trp(1-CH2CO)][Phe(4-COOH)]K[Trp(5-OH)][Aib]VCGP[dS][dS][dS]K([Glu-Glu-Butanoyl(4-(4-I-phenyl))])-NH2 (thioether N-13; lactam 2-7; not fully specified (residue 2)) [GhR_PD_248]
15 | 3.7 nM | {CH2CO}-[Phe(4-COOH)]KVVSN[Trp(1-CH2CO)][Phe(4-COOH)]K[Trp(5-OH)][Aib]VCK([AEEA-AEEA-Glu-Glu-C15 diacid])-NH2 (thioether N-13; lactam 2-7; not fully specified (residue 2)) [GhR_PD_272]
16 | 1.95 nM | {CH2CO}-[Phe(4-COOH)]KVVSN[Trp(1-CH2CO)][Phe(4-COOH)]K[Trp(5-OH)][Aib]VCK([Glu-Glu-Butanoyl(4-(4-MePh))])-NH2 (thioether N-13; lactam 2-7; not fully specified (residue 2)) [GhR_PD_245]
17 | 9.43 nM | B6
18 | 3.33 nM | {CH2CO}-[Phe(4-COOH)]KVVSN[Trp(1-CH2CO)][Phe(4-COOH)]K[Trp(5-OH)][Aib]VCK([AEEA-AEEA-Glu-Glu-C17 diacid])-NH2 (thioether N-13; lactam 2-7; not fully specified (residue 2)) [GhR_PD_274]
19 | 3.61 nM | {CH2CO}-[Phe(4-COOH)]KVVSN[Trp(1-CH2CO)][Phe(4-COOH)]K[Trp(5-OH)][Aib]VCK([AEEA-AEEA-Glu-Glu-C16 diacid])-NH2 (thioether N-13; lactam 2-7; not fully specified (residue 2)) [GhR_PD_273]
20 | 3.95 nM | B7
21 | 2.53 nM | {CH2CO}-[Phe(4-COOH)]KVVSN[Trp(1-CH2CO)][Phe(4-COOH)]K[Trp(5-OH)][Aib]VCK([Glu-Glu-C17 diacid])-NH2 (thioether N-13; lactam 2-7; not fully specified (residue 2)) [GhR_PD_270]
22 | 2.03 nM | {CH2CO}-[Phe(4-COOH)]KVVSN[Trp(1-CH2CO)][Phe(4-COOH)]K[Trp(5-OH)][Aib]VCK([Glu-Glu-Butanoyl(4-Ph)])-NH2 (thioether N-13; lactam 2-7; not fully specified (residue 2)) [GhR_PD_218]
23 | 1.61 nM | {CH2CO}-[Phe(4-COOH)]KVVSN[Trp(1-CH2CO)][Phe(4-COOH)]K[Trp(5-OH)][Aib]VCK([Glu-Glu-Biph4pCO])-NH2 (thioether N-13; lactam 2-7; not fully specified (residue 2)) [GhR_PD_253]
24 | 2.96 nM | B8
25 | 1.93 nM | {CH2CO}-[Phe(4-COOH)]KVVSN[Trp(1-CH2CO)][Phe(4-COOH)]K[Trp(5-OH)][Aib]VCK([Glu-Glu-Hexanoyl(6-Ph)])-NH2 (thioether N-13; lactam 2-7; not fully specified (residue 2)) [GhR_PD_254]
26 | 9.67 nM | B9
27 | 3.51 nM | {CH2CO}-[Phe(4-COOH)]KVVSN[Trp(1-CH2CO)][Phe(4-COOH)]K[Trp(5-OH)][Aib]VCK([Glu-Glu-Ac])-NH2 (thioether N-13; lactam 2-7; not fully specified (residue 2)) [GhR_PD_267]
28 | 3.36 nM | B10
